Patent US20060015952A1, “Screening assays and methods of tumor treatment” (GENENTECH, INC., priority 2003, published 2006)
Marks after values point to notes of the source that are not given here.

Legend:
Her2+ epithelial cells = assay: Metastasis from Her2+ epithelial cells (non-surface lung tumors); assay type: in vivo, mouse
Protocol: (§1) Epithelial cells from trastuzumab-sensitive (F2-1282) and trastuzumab-resistant (Fo5) tumor cell lines were injected into mammary fat pads of immunocompetent mice.
Metastasis from such cells produces non-surface lung tumors (images not shown), the incidence and growth of which are not inhibited by anti-TGF-β antibody treatment.

B16-F10 = assay: Mouse model of metastatic melanoma, B16-F10 subline; assay type: in vivo; details: about 30 mg/kg
Protocol: (§2) This study used B16-F10 and B16-BL6 metastatic melanoma sublines, subcutaneously injected into immunocompetent mice, to test the effect of anti-TGF-β antibodies (2G7) on primary and secondary melanoma. In particular, C57Black 6 mice were injected subcutaneously with 500,000 tumor cells. The primary tumor developed was removed at day 14, and the mice were sacrificed around day 28. The anti-TGF-β antibody concentration was approximately 30 mg/kg. The B16-F10 subline is known to be able to colonize bone if introduced into the bone by direct injection (not as a result of subcutaneous injection). The B16-BL6 subline is metastatic to the lung.

PyMT tumors = assay: PyMT tumor mouse model of breast cancer; assay type: in vivo; details: relative to IgG control
Protocol: This is a mouse model of breast cancer caused by expression of the polyoma middle T oncoprotein (PyMT) in the mammary epithelium. Primary tumor cells from PyMT tumors were injected (2 million or 5 million cells) into the mammary fat pad of a recipient mouse. The tumor developed was then passaged in a large number of further mice.

[1] = target: T1, porcine, platelet-derived TGF-beta2 (Sus scrofa, UniProt P09858); assay: Immunoprecipitation of 125I-TGF-beta2; assay type: binding; details: 2 μg purified monoclonal antibody
T1 construct: porcine, platelet-derived ^125I-TGF-beta2; purchased R & D Systems; host or cells: porcine platelets
T1 sequence (P09858 303-414 limits assumed): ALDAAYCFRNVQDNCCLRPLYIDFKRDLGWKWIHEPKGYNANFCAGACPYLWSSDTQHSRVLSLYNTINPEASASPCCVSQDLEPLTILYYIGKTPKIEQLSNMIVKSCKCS
Protocol: (§3) The specificity of anti-TGF-beta monoclonal antibodies was also evaluated by their ability to immunoprecipitate ^125I-rTGF-beta1 or porcine, platelet-derived ^125I-TGF-beta2 (R & D Systems, Minneapolis, Minn.; specific activity 103.4 μCi/μg). Two μg of purified monoclonal antibody was incubated with 5×10^4 CPM of ^125I-rTGF-beta1 or ^125I-TGF-beta2 for two hours at 22° C. The immunocomplexes were pelleted with protein A-SEPHAROSE™ bead-formed agarose-based gel filtration matrix (Repligen, Cambridge, Mass.) coated with rabbit anti-mouse IgG (Boehringer Mannheim Biochemicals, Indianapolis, Ind.) and subsequently washed 3× with PBST. The complexes were dissociated from the protein A-SEPHAROSE™ bead-formed agarose-based gel filtration matrix with reducing sample buffer and electrophoresed into 12% SDS-polyacrylamide gel (SDS-PAGE) and exposed to autoradiography.

[2] = tested on: B16-F10 and B16-BL6 metastatic melanoma sublines; assay: Mouse model of metastatic melanoma, secondary lung tumors; assay type: in vivo; details: approximately 30 mg/kg
Protocol: as §2

F2-1282 tumor cell line = assay: Trastuzumab-sensitive Her2+ breast cancer mouse model; assay type: in vivo; details: 25 mg/kg at day 0
Protocol: as §1

4T1 tumor cells = assay: 4T1 mouse mammary carcinoma model; assay type: in vivo
Protocol: In a first set of experiments, 4T1 cells were derived from a single spontaneously arising mammary tumor from a BALB/cfC3H mouse. Primary 4T1 tumor cells were injected into mammary fat pads of immunocompetent BALB/c mice One week after injection, palpable primary tumors were observed. The tumor spontaneously metastasized into the lung (about two week after injection), liver and spleen (about three weeks after injection) and bone (between about 4 and 5 weeks after injection).
The animals were treated with 15 mg/kg, 25 mg/kg and 43 mg/kg doses of an anti-TGF-β antibody (2G7). Tests were carried out at day 0, 1, 2, and 1 and 2 weeks after injection of cancer cells.

[3] = target: T2, TGF-beta1 dimer (nonreduced) form (Homo sapiens, UniProt P01137); assay: Immunoblot analysis with rTGF-beta1; assay type: binding
T2 construct: made in house
T2 sequence (P01137 279-390 limits assumed): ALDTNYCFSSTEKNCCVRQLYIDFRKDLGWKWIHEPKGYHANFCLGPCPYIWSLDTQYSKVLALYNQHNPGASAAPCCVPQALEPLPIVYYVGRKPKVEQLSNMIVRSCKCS
Protocol: One μg/lane of rTGF-beta1 was electrophoresed in 12% SDS-PAGE using non-reducing sample buffer to determine the reactivities of the various monoclonal antibodies with the dimer forms of rTGF-beta1. The peptides were transblotted onto nitrocellulose paper and probed with the appropriate monoclonal antibody conjugated with HRP. Bound antibody was visualized using the insoluble substrate 4-chloro-1-naphthol (Kirkegaard and Perry, Gathersburg, Md.). The reaction was stopped after 15 minutes by exhaustive washing with distilled water and the immunoblots were dried and photographed.

Fo5 tumor cell line = assay: Trastuzumab-resistant Her2+ breast cancer mouse model; assay type: in vivo; details: 25 mg/kg at day 0
Protocol: as §1

TGF-beta1 = target: T3, TGF-beta1 (Homo sapiens, UniProt P01137); assay: Affinity determination, solid-phase radioimmunoassay / competitive inhibition, Scatchard analysis; assay type: binding; details: competitive inhibition assay
T3 construct: made in house
T3 sequence (P01137 279-390 limits assumed): as above
Protocol: The solid-phase radioimmunoassay procedure described by Mariani et al, J. Immunol. Methods, 71: 43 (1984) was used to determine the affinities of the TGF-beta-specific monoclonal antibodies. Briefly, purified anti-TGF-beta monoclonal antibodies were coated on IMMUNLON™ 2 “REMOVAWELL”™ strips in pH 9.6 carbonate buffer for 18 hours at 4° C. The wells were washed and blocked as described above. 40,000 CPM/well of either ^125I-rTGF-beta1 or porcine ^125I-TGF-beta2 (R & D Systems), in 50 μl PBSG, was added to 2-fold serial dilutions of non-labeled rTGF-beta1 or porcine TGF-beta2 ranging from 2500 to 9.7 ng/well, in 50 μl PBSG. The resulting mixture was incubated for 18 hours at 4° C. The wells were washed and counted as described above and the affinity constants determined by Scatchard analysis (Munson and Pollard, Anal. Biochem., 107: 220 (1980)), which yields similar results as the non-linear regression analysis of Antoni and Mariani, J. Immunol. Meth., 83: 61 (1985).

rTGF-beta1 = rTGF-beta1 (Homo sapiens, UniProt P01137); assay: Immunoprecipitation of 125I-rTGF-beta1; assay type: binding; parameters: made in house; details: 2 μg purified monoclonal antibody
Sequence of rTGF-beta1 (P01137 279-390 limits assumed): as above
Protocol: as §3

B16-BL6 = assay: Mouse model of metastatic melanoma, B16-BL6 subline; assay type: in vivo; details: about 30 mg/kg
Protocol: as §2

[4] = early treatment (5 weeks after injection of cells)
[5] = mice injected with tumor cells, relative to mice with tumors treated with control antibodies
[6] = mice without tumor cells, relative to control mice without tumors

B1: 2G7: murine anti-TGF-beta monoclonal antibody; VL and VH SEQ ID Nos. 1 and 2 (antibody, listed as Mus musculus, V domains shown)
VH: QVXLXQSGAELVRPGTSVKVSCKASGYAFTNYLIEWVKQRPGQGLEWIGVNNPGSGGSNYNEKFKGKATLTADKSSSTAYMQLSSLTSDDSAVYFCARSGGFYFDYWGQGTTQSPSPQPKRRAH
VL: DIMMTQSPSSLAVSAGEKVTMSCKSSQSVLYSSNQKNYLAWYQQKPGQSPKLLIYWASTRESGVPDRFTGSGSGTDFTLTISSVQAEDLAVYYCHQYLSSDTFGGGTKLEIKRTVA
modifications: not fully specified; Xaa 3, 5 Unknown amino acid
- incidence and growth of non-surface lung tumors (Her2+ epithelial cells): not inhibited
- survival of mice with melanoma (B16-F10): increased
- survival of mice with melanoma (B16-F10; listed as anti-TGF-β antibody): increases
- primary tumor growth (PyMT tumors): decreased
- immunoprecipitation of 125I-TGF-beta2 (autoradiograph) [1]: immunoprecipitated ^125I-TGF-beta2 to any measurable degree
- incidence of metastatic lung tumor [2]: significantly decreased
- number of metastatic lung tumor [2]: significantly decreased
- incidence of metastatic lung tumor ([2]; listed as anti-TGF-β antibody): decreases
- number of metastatic lung tumor ([2]; listed as anti-TGF-β antibody): decreases
- size of primary tumor (F2-1282 tumor cell line): increased
- systemic VEGF levels (F2-1282 tumor cell line): increased
- results of 25-mg/kg dose versus 15-mg/kg dose (4T1 tumor cells; 25 mg/kg vs 15 mg/kg, data not shown): better results than the 15-mg/kg dose
- results of 25-mg/kg versus 43-mg/kg doses (4T1 tumor cells; 25 mg/kg vs 43 mg/kg): no significant difference
- size of primary tumor (4T1 tumor cells; 43-mg/kg dose): transiently decreased
- systemic levels of VEGF (4T1 tumor cells; 43-mg/kg dose): reduced
- histology scores (grade and number of lobes affected) of secondary lung tumors (4T1 tumor cells; [4]): decreased
- volume of secondary lung tumors (4T1 tumor cells; [4]): decreased
- weight of secondary lung tumors (4T1 tumor cells; [4]): decreased
- breast tumor-induced bone destruction (4T1 tumor cells; early treatment (5 weeks after injection of tumor cells)): inhibited certain parameters of breast tumor-induced bone destruction
- BS/BV (4T1 tumor cells; [5]): −6.6%
- BV/TV (4T1 tumor cells; [5]): +14.3%
- Mineral density (4T1 tumor cells; [5]): +6.3%
- Trabecular number (4T1 tumor cells; [5]): +6.5%**
- Trabecular thickness (4T1 tumor cells; [5]): +7.2%
- BS/BV (4T1 tumor cells; [6]): ns
- BV/TV (4T1 tumor cells; [6]): −4.8%
- Mineral density (4T1 tumor cells; [6]): ns
- Trabecular number (4T1 tumor cells; [6]): −2.8%*
- Trabecular thickness (4T1 tumor cells; [6]): ns
- band strength in indirect immunoblot ([3]; nonreduced TGF-beta1 dimer): much stronger band than either 4A11 or 12H5
- reactivity in indirect immunoblot with TGF-beta1 dimer ([3]; nonreduced form): reacted
- size of primary tumor (Fo5 tumor cell line): increased
- systemic VEGF levels (Fo5 tumor cell line): increased
- affinity of interaction between TGF-beta1 and the monoclonal antibody (TGF-beta1): 1.2e+08 L/mol
- immunoprecipitation of 125I-rTGF-beta1 (autoradiograph) (rTGF-beta1): immunoprecipitated equivalent amounts
- survival of mice with melanoma (B16-BL6): increased
- survival of mice with melanoma (B16-BL6; listed as anti-TGF-β antibody): increases
